What was measured:
[1] = target: recombinant human TGF-β1 produced in-house (human)
[2] = target: recombinant mouse TGF-β1 (mouse)
Chain of recombinant mouse TGF-β1 (mouse) (P04202 279-390): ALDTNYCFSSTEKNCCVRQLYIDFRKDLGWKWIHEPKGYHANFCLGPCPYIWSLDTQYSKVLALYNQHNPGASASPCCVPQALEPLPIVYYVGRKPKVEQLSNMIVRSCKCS

Chain of recombinant human TGF-β1 produced in-house (human) (P01137 279-390): as the sequence (P04202 279-390) above, with S75A counted along it

SBE-luciferase activity (firefly/Renilla) in HEK293 cells treated with TGF-β1 (1 nM) without vs with strep-tag-fortilin (3 nM); value given is with fortilin [1]: 5.4 A.U.
SEAP reporter (SBE) activity of MFB-F11 cells stimulated with 156 pM TGF-β1 pre-incubated with 0, 19.5 or 195 nM strep-tag-fortilin; value given is at 195 nM fortilin [2]: 6.3 A.U.
B1: strep-tag-fortilin (recombinant human fortilin with an N-terminal Strep-tag II) (natural protein)
chain: MIIYRDLISHDEMFSDIYKIREIADGLCLEVEGKMVSRTEGNIDDSLIGGNASAEGPEGEGTESTVITGVDIVMNHHLQETSFTKEAYKKYIKDYMKSIKGKLEEQRPERVKPFMTGAAEQIKHILANFKNYQFFIGENMNPDGMVALLDYREDGVTPYMIFFKDGLEMEKC
